In the nanobody polyreactivity screen of Harvey et al. (2022):

assay: yeast display, Sf9 membrane polyspecificity reagent, FACS + sequencing; frameworks hold sequencing errors
Procedure, shortened: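 In a synthetic yeast display library (Saccharomyces cerevisiae BJ5465), nanobody expression was induced with galactose for 36–48 hours. FACS gates were set low and high (top ~1%) using anti-HA fluorescence for expression and streptavidin fluorescence for binding of the Sf9 membrane reagent. Each polyreactivity label is drawn from the gate of origin.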

| Sequence | polyreactivity (PSR sort gate) |
| --- | --- |
| QVQLVESGGGLVQAGGSLRLSCAASGSICERYAMGWYRQAPGKERELVAAISWRGTRTFYADSVKGRFTISRDNAKNTVYLQMNSLKPEDTAVYYCAADSRPPKYDYWGQGTQVTVSS | high polyreactivity |
| QVQLVESCGGLVQAGGSLRLSCAASGSIFADYAMGWYRQAPGKEREFVAAITRSGTSTYYADSVKGRFTISRDNAKNTVYLQMTSLKPVDTPVYYCAKTEVLLYLYTLDYWGQGTQVTVSS | low polyreactivity |
| QVQLVESGGGLVQAGGSLRLSCAASGLTFKFNAMGWYRQAPGKERELVAAISFGGDDTYYADSVKGRFTISRDNAKNTVYLQMNSLKPEDTAVYYCAAEYDTWGYSGRDYWGQGTQVTVSS | low polyreactivity |
| QVQLVESGGGLVQAGGSLRISCAPSGSTSVQYAMGWYRQAPGKERELVAAIDRSGGSTSYADSVKGRFTISRDNAKNTVYLQMNSLKPEDTAVYYCNADPVRSTYSYDYWGQGTQVTVSS | low polyreactivity |
| QVQLVESGGGLVQAGGSLRLSCAASGSTFHSYAMGWYRQAPGKERELVAAISSSGGSTYYADSVKGRFTISRDNAKNTVYLQMNSLKPEDTAVYYCAADWRTKGYDSLGQGTQVTVSS | high polyreactivity |
| QVQLVESGGGLVQAGGRLRLSCAASGSIIISNGMGWSRQAPGKERELVATISWIGGSTYYADSVKGRFTISRDNAKNTVYLQMNSLKPEDTAVYYCAADVVLARPFEGDYWGQGTQVTVSS | low polyreactivity |
| QVQLVEAGRGLVHAGGSLRLSCDPSGLTFSRYAMGWYRPAPGKESELVPAISSRGGTTYYADSVKGRFTISRDYAKNTVYLQMYSMKPEDTAVYYCAAGYITWGSGNWVVTPYDVWGQGTQVTVSS | high polyreactivity |
| QVQLVESGGGLVQAGGSLRLLCAASGFTFFRYAKGWYRQAPGKERELLATINWSGGRTYYADSVKGRFTISRDNAKNTVYLQMNSLKPEDTAVYYSNAYYPSSFWRMDYWGQGTQVTVSS | high polyreactivity |
| QVQLVESGGGLVQAGGSLRLSCAASVRTFYIYAMGWYRQAPGKERELDAAITWSGGTTYYADSVKGRFTISRDIAINTVYLQMNSLKPEDTAVYYCAADRYGFYLESYYCGQGTQVTVSS | low polyreactivity |
| QVQLVESRGGIVQAGGSLRLSCAASGRIFGWYAMGWYRQAPGKERELVAAITSSVGRTYYADSVKGRFTISRDNAKNTVYLQMNSLKPEDTAVYYCAKDLYTYYYFEYDYWGQGTQVTVSS | low polyreactivity |
| QVQLVESGGGLVQAGGSLRLSCAASGRTFDSNTMGWYRQAPGKERELVAAITGSGGRTYYADSVKGRFTISRDNAKNSVYLQMNSLKPEDTAVYYCAARPYFYERSAGYYWGQGTQVTVSS | high polyreactivity |
| QVQLVESGGGLVQAGGSLSLSCAASGRTLYLYTMGWYRQAPGKERELVASINWRGSTYYADSVKGRFTISRDNAKNTVYLQMNSLKPEDTAVYYCNVGGPSGGMYYWGQGTQVTVSS | low polyreactivity |
| QVQLVESGGGLVQAGGSLRLSCAASGFTFQFYAMGWYRQAPGKESELVASIRSGVGTYYADSVKGRFTISRDNAKNTVYLQMYCVKPEDTAVYYCNAVYNRFSRSYDYWGQGTQVTVSS | high polyreactivity |
| PVQLVESGGGLVQAGGSHRVICAASGRIFYVDAMGWSTQAPGKERELVADMSRGGSTNYADSVKGRFTISRDNAKKTVYLQMNRLKPEDTSVYYCNTDGLWSAEYDYWGQGTQVTVSS | low polyreactivity |
| QVQLVESGGGLVQAGGSLRLSCAASGRTFYGYAMGWYRQAPGKERELVAAISKRGGSTYYADSVKGRFTISRDNAKNTVYLQMNSLKPEDTAVYYCARPYLGPYSGYDYNYWGQGTQVTVSS | high polyreactivity |
| QVQLLQSGGGLVQAGGSLRLSCAASGFIFLGYAMGWYRQAPGNERELVAAISENSGTTSYADSVKGRFTISRDNAKNTVYLQMNSLKPEDTAVYYCAADSIGNYLLYDYWGQGTQVTVSS | low polyreactivity |
| QVQLVESGGGLVQAGGSLRLSCAASGRIIQYNAMGWYRQAPGKERELVAAMSWRSGRTYYADSVKGRFTISRDNAKNTVYLQMNSLKPEDTAVYYCAATSRTSWYGYWGQGTQVTVSS | high polyreactivity |
| QVQLVESGGGLVQAGGSLRLSCAASGIYSYVMGWYRQAPGKERELVAAISGTGGRTYYADSVKGRFTISRDNAKNTVYLQMNSLKPEDTAVYYCAARGIYQPKTFDYWGQGTQVTVSS | high polyreactivity |
| QVQLVESGGGLVQAGGSLRLSCAASGSTFKQYAMGWYRQAPGKERELVAAISSSGSTYYADSVKGRFTISRDNAKNTVYLQMNSLKPEDTAVYYCARSRYLWYTVPPKYGYWGQGTQVTVSS | high polyreactivity |
| QVQLVESGGGLVQAGGSLRLICAASGIIFGIYDMGWYRQAPGKERELVAAIRRSGGSTYYADSVKGRFTISRDNAKNTVYLQMNSLKPEDTAVYYCATDAWYYSQTNHDYWGQGTQVTVSS | low polyreactivity |
| QVQLVESGGGLVQAGGSLRLSCAASGNTFGENAMGWYRQAPGKERELVAAISNGGTTNYADSVKGRFTISRDNAKNTVYLQMNSLKPEDTAVYYCNAKFGISQPGHSGLLKMDYWGQGTQVTVSS | low polyreactivity |
| QVQLEESGGGLVQAGGSLRLSCASSGSTFPYNAMGWYRQAPGKERELVAANTSGASTNYADSVKGRFTISRENAKNTVYLQMNRLKPEDTAVYYCAAQSFGKRIWSPRYQLNYWGQGTQVTVSS | low polyreactivity |
| QVQLVESGGGLVQAGGSLRLSCAASGRIFARYAMGWYRQAPGKERELVAAITKSVGSTYYADSVKGRFTISRDNAKNTVYLQMNSLKPEDTAVYYCNAVARGYGYDYWGQGTQVTVSS | high polyreactivity |
| QVQLVESGGGLVQAGGSLRLSCAASGLTFSQNAMGWYRQAPGKERELVAAITRSGSTTHYADSVKGRFTISRDNAKNTVYLQMNSLKPEDTAVYYCAAVAFQTRYYYWGQGTQVTVSS | high polyreactivity |
| QVQLEDSGGCLVQAGGRLRLSCAASGITYGRNTMGRYRQAPGKERELVAAIDSGGNTYADSVKGRFTISRDNAKITVYLQMNSLKPEDTAVYYCAVYGGEFSSYGYWGQGTQVTVSS | low polyreactivity |
| QVQLVESGGGLVQAGGSLRISCAASGSIFGSYTMGWYRQAPGKERELVAVINWSGDRTYYADSVKGRFTISRDNAKNTVYLQMNSLKPEDTAVYYCAARERAGYSRIRYNYWGQGTQVTVSS | low polyreactivity |
| QVQLVESGGGLVQAGGSLRLSCAASGFTFNRNAMGWYRQAPGKERELVAAITKRGGSTFYADSVKGRFTISRDNAKNTVYLQMNSLKPEDTAVYYCAASVATYFPRHYDYWGQGTQVTVSS | high polyreactivity |
| QVQLVESGGGLVQAGGSLRLSCAASGFIIPGYAMGWYRQAPGKERELVAAISRSGTSTYYADSVKGRFTISRDNAKNTVYLQMNSLKPEDTAVYYCAAKPASLSVRGYDYWGQGTQVTVSS | high polyreactivity |
| QVQLVESGGGLVQAGGSLRLSCAASGRIFVTYVMGWYRPAPGKERELVAAISRRGGTTYYADSVKGRFTISRDNAKNTVYLQMNSLKPEDTAVYYCNVARHYAVESGYWGQGTQVTVSS | high polyreactivity |
| QVQLVESGGGLVQAGGSLRLSCAASGSTFRLNAMGWYRQAPGKERELVAAISRSTGTTHYADSVKGRFTISRDNAKNTVYLQMNSLKPEDTAVYYCATDRAKWHKNGDLGYWGQGTQVTVSS | low polyreactivity |
